Changes are numbered by the printed parent chain.
Columns and labels:
[1] = biological target: T1, myc epitope-tagged RNF31 Q622L (human, UniProt Q96EP0-1 1-1072, Q622L); assay: co-IP
T1 sequence (looked up): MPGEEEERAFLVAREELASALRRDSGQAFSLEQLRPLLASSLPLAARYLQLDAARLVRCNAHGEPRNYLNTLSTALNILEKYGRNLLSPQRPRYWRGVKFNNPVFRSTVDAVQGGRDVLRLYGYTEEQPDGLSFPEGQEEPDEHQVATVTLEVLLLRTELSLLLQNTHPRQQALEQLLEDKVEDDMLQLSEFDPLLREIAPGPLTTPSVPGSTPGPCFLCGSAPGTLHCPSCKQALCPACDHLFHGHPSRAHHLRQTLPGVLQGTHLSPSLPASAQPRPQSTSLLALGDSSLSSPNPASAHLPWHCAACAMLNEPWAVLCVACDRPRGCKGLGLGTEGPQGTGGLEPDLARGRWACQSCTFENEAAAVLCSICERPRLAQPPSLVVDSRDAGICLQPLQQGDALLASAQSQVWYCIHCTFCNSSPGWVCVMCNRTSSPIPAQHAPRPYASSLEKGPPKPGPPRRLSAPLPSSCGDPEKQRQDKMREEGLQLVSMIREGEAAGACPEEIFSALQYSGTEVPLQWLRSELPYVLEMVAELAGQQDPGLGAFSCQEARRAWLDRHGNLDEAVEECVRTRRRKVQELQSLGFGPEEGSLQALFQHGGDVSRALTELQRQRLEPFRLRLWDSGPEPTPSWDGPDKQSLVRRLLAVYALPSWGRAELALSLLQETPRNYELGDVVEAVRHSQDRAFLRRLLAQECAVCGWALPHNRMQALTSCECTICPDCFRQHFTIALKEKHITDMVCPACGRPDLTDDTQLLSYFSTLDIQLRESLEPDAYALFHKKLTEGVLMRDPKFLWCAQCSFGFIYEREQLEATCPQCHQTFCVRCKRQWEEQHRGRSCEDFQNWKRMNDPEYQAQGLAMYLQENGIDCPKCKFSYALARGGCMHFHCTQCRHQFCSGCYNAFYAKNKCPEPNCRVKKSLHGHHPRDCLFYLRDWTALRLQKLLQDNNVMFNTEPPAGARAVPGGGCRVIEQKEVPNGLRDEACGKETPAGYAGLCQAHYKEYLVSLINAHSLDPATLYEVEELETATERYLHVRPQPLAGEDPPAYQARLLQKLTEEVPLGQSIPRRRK

[2] = biological target: T2, myc epitope-tagged RNF31 Q584H (human, UniProt Q96EP0-1 1-1072, Q584H); assay: co-IP
T2 sequence (looked up): T1 sequence (looked up) with Q584H, L622Q

B1: RBCK1 (natural protein, human (endogenous in HBL1), UniProt Q9BYM8-1 1-510, looked up)
chain: MDEKTKKAEEMALSLTRAVAGGDEQVAMKCAIWLAEQRVPLSVQLKPEVSPTQDIRLWVSVEDAQMHTVTIWLTVRPDMTVASLKDMVFLDYGFPPVLQQWVIGQRLARDQETLHSHGVRQNGDSAYLYLLSARNTSLNPQELQRERQLRMLEDLGFKDLTLQPRGPLEPGPPKPGVPQEPGRGQPDAVPEPPPVGWQCPGCTFINKPTRPGCEMCCRARPEAYQVPASYQPDEEERARLAGEEEALRQYQQRKQQQQEGNYLQHVQLDQRSLVLNTEPAECPVCYSVLAPGEAVVLRECLHTFCRECLQGTIRNSQEAEVSCPFIDNTYSCSGKLLEREIKALLTPEDYQRFLDLGISIAENRSAFSYHCKTPDCKGWCFFEDDVNEFTCPVCFHVNCLLCKAIHEQMNCKEYQEDLALRAQNDVAARQTTEMLKVMLQQGEAMRCPQCQIVVQKKDGCDWIRCTVCHTEICWVTKGPRWGPGGPGDTSGGCRCRVNGIPCHPSCQNCH
- fold co-immunoprecipitation relative to wild type RNF31 [1]: 2.07 fold
- fold co-immunoprecipitation relative to wild type RNF31 [2]: 1.4 fold

Reference: PMC3992927 (Cancer discovery, 2014)
